Results from patent US20230295301A1 (SHANGHAI JUNSHI BIOSCIENCES, published 2023).

Biological target: T1, huCTLA-4 ECD (his-tag) (human, UniProt P16410 37-162)
T1 construct: also called HX1 hCTLA4 his; HX1 huCTLA4 his; not shown: his-tag
T1 sequence: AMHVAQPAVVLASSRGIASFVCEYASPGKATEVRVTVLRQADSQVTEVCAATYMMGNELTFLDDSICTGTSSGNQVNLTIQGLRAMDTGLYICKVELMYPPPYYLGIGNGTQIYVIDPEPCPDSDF
Test: ELISA, coated huCTLA-4 his
Description: HX1 hCTLA4 his was diluted with PBS (Hyclone) to 1.0 μg/mL, and the dilution was added to a microplate at 100 μL/well. The plate was let stand in an incubator at 37° C. and coated for 90 min and then washed, and 2% BSA was added to the plate at 200 μL/well. The plate was incubated in an incubator at 37° C. for 90 min and then washed. The humanized anti-CTLA-4 antibodies in Table 4 and the control antibody (ipilimumab) were diluted with a diluent (2% BSA) to 1000 ng/mL. The dilution performed each time was not higher than 10-fold. Then, the humanized antibodies and the control antibody were serially diluted 2.5-fold on a sample dilution plate. All the humanized antibody solutions and the control antibody solution were added to a microplate at 100 μL/well. The plate was incubated in an incubator at 37° C. for 60 min and then washed. An HRP-conjugated goat anti-human antibody IgG (Fc specific) was diluted 5000-fold with 2% BSA, and the dilution was added to the microplate at 100 μL/well. The plate was incubated in an incubator at 37° C. for 60 min and then washed. The color development solution TMB was added at 100 μL/well, during which bubbles were avoided. Color development was allowed at 37° C. for 15 min in the dark and then terminated by adding 2 M hydrochloric acid solution at 100 μL/well, during which bubbles were avoided. Reading (wavelength: 450/620 nm) was done within 10 min using a microplate reader.

B1: HuJS007-82 (antibody, V domains shown)
VH: QVQLQESGPGLVKPSQTLSLTCAVSGYSISSGYYWNWIRQFPGKGLEWMGYIGYDGSNYYNPSLKNRVTMSVDTSKNQFSLKLSSVTAVDTAVYYCARNYYSGYFDSWGQGTTVTVSS
VL: DIVMTQSPDSLAVSLGERATINCKASQNVGTYVAWYQQKPGQPPKPLIYSTSYRYSGVPDRFSGSGSGTDFTLTISSLQAEDVAVYFCHQYDTYPLTFGAGTKLELK
notes: 1A5 VH6 + 4B7VL1; constant regions not specified
Q: Does B1 bind?
A: binds

B2: HuJS007-87 (antibody, V domains shown)
VH: QVQLQESGPGLVKPSQTLSLTCAVSGYSISSGYYWNWIRQFPGKGLEWMGYIGYDGSNYYNPSLKNRVTMSVDTSKNQFSLKLSSVTAVDTAVYYCARNYYSGYFDSWGQGTTVTVSS
VL: DIVMTQSPDSLAVSLGERATINCKASQNVGTYVAWYQQKPGQPPKLLIYSTSYRYSGVPDRFSGSGSGTDFTLTISSLQAEDVAVYYCHQYDTYPLTFGQGTKLEIK
notes: 1A5 VH6 + 4B7VL6; constant regions not specified
Q: Does B2 bind?
A: binds

B3: HuJS007-86 (antibody, V domains shown)
VH: QVQLQESGPGLVKPSQTLSLTCAVSGYSISSGYYWNWIRQFPGKGLEWMGYIGYDGSNYYNPSLKNRVTMSVDTSKNQFSLKLSSVTAVDTAVYYCARNYYSGYFDSWGQGTTVTVSS
VL: DIQMTQSPSSLSASVGDRVTITCQASQNVGTYVAWYQQKPGKAPKPLIYSTSYRYSGVPSRFSGSGSGTDFTFTISSLQPEDIATYFCHQYDTYPLTFGAGTKLELK
notes: 1A5 VH6 + 4B7VL5; constant regions not specified
Q: Does B3 bind?
A: binds

B4: HuJS007-85 (antibody, V domains shown)
VH: QVQLQESGPGLVKPSQTLSLTCAVSGYSISSGYYWNWIRQFPGKGLEWMGYIGYDGSNYYNPSLKNRVTMSVDTSKNQFSLKLSSVTAVDTAVYYCARNYYSGYFDSWGQGTTVTVSS
VL: DIQMTQSPSFLSASVGDRVTITCRASQNVGTYVAWYQQKPGKAPKPLIYSTSYRYSGVPSRFSGSGSGTEFTLTISSLQPEDFATYFCHQYDTYPLTFGAGTKLELK
notes: 1A5 VH6 + 4B7VL4; constant regions not specified
Q: Does B4 bind?
A: binds

B5: HuJS007-83 (antibody, V domains shown)
VH: QVQLQESGPGLVKPSQTLSLTCAVSGYSISSGYYWNWIRQFPGKGLEWMGYIGYDGSNYYNPSLKNRVTMSVDTSKNQFSLKLSSVTAVDTAVYYCARNYYSGYFDSWGQGTTVTVSS
VL: DIQMTQSPSSLSASVGDRVTITCRASQNVGTYVAWYQQKPGKVPKPLIYSTSYRYSGVPSRFSGSGSGTDFTLTISSLQPEDVATYFCHQYDTYPLTFGAGTKLELK
notes: 1A5 VH6 + 4B7VL2; constant regions not specified
Q: Does B5 bind?
A: binds

B6: HuJS007-52 (antibody, V domains shown)
VH: QVQLQESGPGLVKPSQTLSLTCTVSAYSITSGYYWNWIRQHPGKGLEWIGYIGYDGSNNYNPSLKSRVTISRDTSKNQFSLKLSSVTAADTAVYYCARDYYSGYFDSWGQGTTLTVSS
VL: EIVMTQSPATLSVSPGERATLSCRASQNVGTYVAWYQQKPGQAPRPLIYSTSYRYSGIPARFSGSGSGTEFTLTISSLQSEDFAVYYCHQYDTYPLTFGQGTKLEIK
notes: 4B7 VH2-2 + 4B7VL7; constant regions not specified
Q: Does B6 bind?
A: binds

B7: huJS007-79 (antibody, human IgG1, kappa, V domains shown)
VH: QVQLQESGPGLVKPSQTLSLTCAVSGYSISSGYYWNWIRQPPGKGLEWIGYIGYDGSNYYNPSLKSRVTMSVDTSKNQFSLKLSSVTAVDTAVYYCARNYYSGYFDSWGQGTTVTVSS
VL: EIVMTQSPATLSVSPGERATLSCRASQNVGTYVAWYQQKPGQAPRPLIYSTSYRYSGIPARFSGSGSGTEFTLTISSLQSEDFAVYYCHQYDTYPLTFGQGTKLEIKR
Q: Does B7 bind?
A: binds

B8: HuJS007-90 (antibody, V domains shown)
VH: QVQLQESGPGLVKPSQTLSLTCAVSGYSISSGYYWNWIRQFPGKGLEWMGYIGYDGSNYYNPSLKNRVTMSVDTSKNQFSLKLSSVTAVDTAVYYCARNYYSGYFDSWGQGTTVTVSS
VL: EIVMTQSPATLSVSPGERATLSCKASQNVGTYVAWYQQKPGQAPRPLIYSTSYRYSGIPARFSGSGSGTEFTLTISSLQSEDFAVYFCHQYDTYPLTFGQGTKLEIK
notes: 1A5 VH6 + 4B7VL9; constant regions not specified
Q: Does B8 bind?
A: binds

B9: HuJS007-108 (antibody, V domains shown)
VH: QVQLQESGPGLVKPSQTLSLTCAVSGYSITSGYYWNWIRQPPGKGLEWIGYIGYDGSNNYNPSLKNRVTMSVDTSKNQFSLKLSSVTAVDTAVYYCARDYYSGYFDSWGQGTTVTVSS
VL: EIVMTQSPATLSVSPGERATLSCKASQNVGTYVAWYQQKPGQAPRPLIYSTSYRYSGIPARFSGSGSGTEFTLTISSLQSEDFAVYFCHQYDTYPLTFGQGTKLEIK
notes: 4B7 VH2-5 + 4B7VL9; constant regions not specified
Q: Does B9 bind?
A: binds

B10: huJS007-106 (antibody, human IgG1, kappa, V domains shown)
VH: QVQLQESGPGLVKPSQTLSLTCAVSGYSITSGYYWNWIRQPPGKGLEWIGYIGYDGSNNYNPSLKNRVTMSVDTSKNQFSLKLSSVTAVDTAVYYCARDYYSGYFDSWGQGTTVTVSS
VL: EIVMTQSPATLSVSPGERATLSCRASQNVGTYVAWYQQKPGQAPRPLIYSTSYRYSGIPARFSGSGSGTEFTLTISSLQSEDFAVYYCHQYDTYPLTFGQGTKLEIKR
Q: Does B10 bind?
A: binds

B11: HuJS007-54 (antibody, V domains shown)
VH: QVQLQESGPGLVKPSQTLSLTCTVSAYSITSGYYWNWIRQHPGKGLEWIGYIGYDGSNNYNPSLKSRVTISRDTSKNQFSLKLSSVTAADTAVYYCARDYYSGYFDSWGQGTTLTVSS
VL: EIVMTQSPATLSVSPGERATLSCKASQNVGTYVAWYQQKPGQAPRPLIYSTSYRYSGIPARFSGSGSGTEFTLTISSLQSEDFAVYFCHQYDTYPLTFGQGTKLEIK
notes: 4B7 VH2-2 + 4B7VL9; constant regions not specified
Q: Does B11 bind?
A: binds

B12: HuJS007-70 (antibody, V domains shown)
VH: QVQLQESGPGLVKPSQTLSLTCAVSAYSITSGYYWNWIRQHPGKGLEWIGYIGYDGSNNYNPSLKSRVTISRDTSKNQFSLKLSSVTAADTAVYYCARDYYSGYFDSWGQGTTLTVSS
VL: EIVMTQSPATLSVSPGERATLSCRASQNVGTYVAWYQQKPGQAPRPLIYSTSYRYSGIPARFSGSGSGTEFTLTISSLQSEDFAVYYCHQYDTYPLTFGQGTKLEIK
notes: 4B7 VH2-4 + 4B7VL7; constant regions not specified
Q: Does B12 bind?
A: binds

B13: HuJS007-81 (antibody, V domains shown)
VH: QVQLQESGPGLVKPSQTLSLTCAVSGYSISSGYYWNWIRQPPGKGLEWIGYIGYDGSNYYNPSLKSRVTMSVDTSKNQFSLKLSSVTAVDTAVYYCARNYYSGYFDSWGQGTTVTVSS
VL: EIVMTQSPATLSVSPGERATLSCKASQNVGTYVAWYQQKPGQAPRPLIYSTSYRYSGIPARFSGSGSGTEFTLTISSLQSEDFAVYFCHQYDTYPLTFGQGTKLEIK
notes: 1A5 VH5 + 4B7VL9; constant regions not specified
Q: Does B13 bind?
A: binds

B14: HuJS007-72 (antibody, V domains shown)
VH: QVQLQESGPGLVKPSQTLSLTCAVSAYSITSGYYWNWIRQHPGKGLEWIGYIGYDGSNNYNPSLKSRVTISRDTSKNQFSLKLSSVTAADTAVYYCARDYYSGYFDSWGQGTTLTVSS
VL: EIVMTQSPATLSVSPGERATLSCKASQNVGTYVAWYQQKPGQAPRPLIYSTSYRYSGIPARFSGSGSGTEFTLTISSLQSEDFAVYFCHQYDTYPLTFGQGTKLEIK
notes: 4B7 VH2-4 + 4B7VL9; constant regions not specified
Q: Does B14 bind?
A: binds

B15: HuJS007-63 (antibody, V domains shown)
VH: QVQLQESGPGLVKPSETLSLTCTVSGYSITSGYYWNWIRQPPGKGLEWIGYIGYDGSNNYNPSLKSRVTISRDTSKNQFSLKLSSVTAADTAVYYCARDYYSGYFDSWGQGTTLTVSS
VL: EIVMTQSPATLSVSPGERATLSCKASQNVGTYVAWYQQKPGQAPRPLIYSTSYRYSGIPARFSGSGSGTEFTLTISSLQSEDFAVYFCHQYDTYPLTFGQGTKLEIK
notes: 4B7 VH2-3 + 4B7VL9; constant regions not specified
Q: Does B15 bind?
A: binds

B16: HuJS007-61 (antibody, V domains shown)
VH: QVQLQESGPGLVKPSETLSLTCTVSGYSITSGYYWNWIRQPPGKGLEWIGYIGYDGSNNYNPSLKSRVTISRDTSKNQFSLKLSSVTAADTAVYYCARDYYSGYFDSWGQGTTLTVSS
VL: EIVMTQSPATLSVSPGERATLSCRASQNVGTYVAWYQQKPGQAPRPLIYSTSYRYSGIPARFSGSGSGTEFTLTISSLQSEDFAVYYCHQYDTYPLTFGQGTKLEIK
notes: 4B7 VH2-3 + 4B7VL7; constant regions not specified
Q: Does B16 bind?
A: binds
